This is an account of results in publication PMC4663267, “A Novel C-Terminal Domain of RecJ is Critical for Interaction with HerA in Deinococcus radiodurans”.

One data set has as its target T1, DrHerA (Deinococcus radiodurans, UniProt Q9RW32 1-618).
T1 sequence: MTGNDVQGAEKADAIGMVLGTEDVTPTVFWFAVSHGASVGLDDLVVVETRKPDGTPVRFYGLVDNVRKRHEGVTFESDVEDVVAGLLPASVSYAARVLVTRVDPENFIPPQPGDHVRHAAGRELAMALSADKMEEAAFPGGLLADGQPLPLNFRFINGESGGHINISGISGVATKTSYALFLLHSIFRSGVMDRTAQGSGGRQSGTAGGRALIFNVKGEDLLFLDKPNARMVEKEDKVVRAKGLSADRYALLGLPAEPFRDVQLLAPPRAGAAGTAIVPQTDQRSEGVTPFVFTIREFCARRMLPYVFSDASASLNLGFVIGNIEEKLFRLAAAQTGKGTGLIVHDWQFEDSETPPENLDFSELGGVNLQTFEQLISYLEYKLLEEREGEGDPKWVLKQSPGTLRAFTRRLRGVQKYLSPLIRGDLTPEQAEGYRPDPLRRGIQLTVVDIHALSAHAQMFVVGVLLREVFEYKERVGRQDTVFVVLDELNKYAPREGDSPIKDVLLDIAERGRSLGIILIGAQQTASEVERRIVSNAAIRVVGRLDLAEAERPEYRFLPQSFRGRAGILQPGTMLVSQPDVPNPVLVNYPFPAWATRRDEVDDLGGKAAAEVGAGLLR
Put plainly: EMSA; HerA alone; EMSA: 100 nM DNA, 80 mM NaCl, 20 mM Tris-HCl pH 7.5, 1 mM DTT, 30 C, 10 min, 5% TBE native PAGE. The settings on record: protein: recombinant; tags: N-terminal His6; chain copies: 6; label: 5' FAM; single strand.

Another data set addresses T2, DrRecJ (Deinococcus radiodurans, UniProt D0EM60 1-705).
T2 sequence: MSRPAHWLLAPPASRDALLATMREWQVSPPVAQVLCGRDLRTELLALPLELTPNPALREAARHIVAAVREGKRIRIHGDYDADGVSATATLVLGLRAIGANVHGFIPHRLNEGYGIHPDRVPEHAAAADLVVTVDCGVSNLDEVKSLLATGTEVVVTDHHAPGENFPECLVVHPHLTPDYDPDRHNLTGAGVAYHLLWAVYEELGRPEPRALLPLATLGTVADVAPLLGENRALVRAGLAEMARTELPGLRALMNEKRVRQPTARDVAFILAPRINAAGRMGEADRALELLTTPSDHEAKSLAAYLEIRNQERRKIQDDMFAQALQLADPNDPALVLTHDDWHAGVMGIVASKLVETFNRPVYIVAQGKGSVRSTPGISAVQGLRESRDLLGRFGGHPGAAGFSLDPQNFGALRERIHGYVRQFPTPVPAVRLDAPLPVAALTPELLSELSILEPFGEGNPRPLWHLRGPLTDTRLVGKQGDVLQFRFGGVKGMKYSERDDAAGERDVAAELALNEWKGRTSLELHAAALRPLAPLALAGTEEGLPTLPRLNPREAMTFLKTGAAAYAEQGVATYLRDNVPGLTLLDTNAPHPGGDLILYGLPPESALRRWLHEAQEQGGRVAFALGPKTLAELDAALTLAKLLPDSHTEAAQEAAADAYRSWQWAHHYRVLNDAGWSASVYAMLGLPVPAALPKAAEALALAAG
Put plainly: EMSA; DNA:RecJ 1:2 to 1:16; no metal added; EMSA: 100 nM DNA, 80 mM NaCl, 20 mM Tris-HCl pH 7.5, 1 mM DTT, 30 C, 10 min, 5% TBE native PAGE. Conditions: protein: recombinant; tags: HMT (His6-MBP) tag removed by TEV; label: 5' FAM; single strand.

B1: O1 (10 nt ssDNA) (ssDNA)
DNA: AAAAAAAAAA
For the molecule B1, the binding result with DrHerA is “no binding”; with DrRecJ, “binds”.
